Data reported in IntAct's records for PubMed 23238393.

B1: Ubiquitin-like protein ATG12B (Arabidopsis thaliana (Mouse-ear cress)), Q9LVK3 (parent)
chain: MATESPNSVQKIVVHLRATGGAPILKQSKFKVSGSDKFANVIDFLRRQLHSDSLFVYVNSAFSPNPDESVIDLYNNFGFDGKLVVNYACSMAWG
partner: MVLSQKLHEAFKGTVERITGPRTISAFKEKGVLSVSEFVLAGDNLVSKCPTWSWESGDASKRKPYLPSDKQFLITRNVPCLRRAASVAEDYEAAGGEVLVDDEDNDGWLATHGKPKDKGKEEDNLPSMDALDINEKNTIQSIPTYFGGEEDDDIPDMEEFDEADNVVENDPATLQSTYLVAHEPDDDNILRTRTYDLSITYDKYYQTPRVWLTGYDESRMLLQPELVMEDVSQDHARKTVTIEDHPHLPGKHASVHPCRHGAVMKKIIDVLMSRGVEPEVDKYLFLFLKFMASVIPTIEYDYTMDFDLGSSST

Variants of: B1
Settings: with atg3_arath ATG3, Q0WWQ1

Row | effect of a mutation on the interaction | Variant
1 | decreasing interaction | F62A

Variants of: B1
Settings: with atg3_arath ATG3, Q0WWQ1
Remark: another data set of the same source

Row | effect of a mutation on the interaction | Variant
2 | decreasing interaction | Y57A
